Patent publication US20070104726A1

Tests used:
[1] = biological target: IgG constant region-CD21 fusion protein (UniProt P20023); experiment: ELISA, IgG constant region-CD21 fusion coated; reference monomeric C3d (Calbiochem)
[2] = biological target: CD21 (CR2) on human CD21+ Raji lymphoblastoid cells (human) (UniProt P20023); experiment: flow cytometry on Raji cells, 100 nM; reference monomeric C3d (Calbiochem)

linear trimer of human C3d, called C3d3 or APT2029
fold increase in gradient of the linear portion of the binding curve against monomeric C3d [1]: 3.4 fold
fold signal intensity increase against C3d (Calbiochem) [2]: 6.4 fold
